Measured values as given in patent publication US20160106861A1, “AXL ANTIBODY-DRUG CONJUGATE AND ITS USE FOR THE TREATMENT OF CANCER” (PIERRE FABRE MEDICAMENT, priority 2013, published 2016).

Tests used:
rhMer-Fc = biological target: T1, rhMer-Fc (Homo sapiens, UniProt Q12866); assay: ELISA binding on immobilized rhMer-Fc protein; settings: starting concentration 5 μg/ml, 1/2 serial dilutions
T1 construct: purchased R and D Systems 891-MR
Description: (§1) Briefly, the recombinant human Axl-Fc (R and D systems, cat N° 154AL/CF), rhDtk (R and D Systems, cat N° 859-DK) or rhMer-Fc (R and D Systems, cat N° 891-MR) proteins were coated overnight at 4° C. to Immulon II 96-well plates and, after a 1 h blocking step with a 0.5% gelatine solution, 1613F12 was added for an additional 1 h at 37° C. at starting concentration of 5 μg/ml (3.33 10^−8M). Then ½ serial dilutions were done over 12 columns. Plates were washed and a goat anti-mouse (Jackson) specific IgG-HRP was added for 1 h at 37° C. Reaction development was performed using the TMB substrate solution. The isotype control antibody mIgG1 and the commercial anti-Axl Mab 154 antibody were also used in parallel. Coating controls were performed in presence of a goat anti-human IgG Fc polyclonal serum labelled with HRP (Jackson, ref 109-035-098) and/or in presence of a HRP-coupled anti-Histidine antibody (R and D Systems, ref: MAB050H).

membrane Axl receptor = biological target: T2, membrane Axl receptor (Homo sapiens, UniProt P30530); assay: FACS binding on human tumor cells; settings: various human tumor cells
T2 construct: endogenous in cells; host or cells: human tumor cell lines SN12C, Calu-1, MDA-MB435S, MDA-MB231, NCI-H125, MCF7 (Axl-negative), Panc1
T2 sequence (P30530 26-894): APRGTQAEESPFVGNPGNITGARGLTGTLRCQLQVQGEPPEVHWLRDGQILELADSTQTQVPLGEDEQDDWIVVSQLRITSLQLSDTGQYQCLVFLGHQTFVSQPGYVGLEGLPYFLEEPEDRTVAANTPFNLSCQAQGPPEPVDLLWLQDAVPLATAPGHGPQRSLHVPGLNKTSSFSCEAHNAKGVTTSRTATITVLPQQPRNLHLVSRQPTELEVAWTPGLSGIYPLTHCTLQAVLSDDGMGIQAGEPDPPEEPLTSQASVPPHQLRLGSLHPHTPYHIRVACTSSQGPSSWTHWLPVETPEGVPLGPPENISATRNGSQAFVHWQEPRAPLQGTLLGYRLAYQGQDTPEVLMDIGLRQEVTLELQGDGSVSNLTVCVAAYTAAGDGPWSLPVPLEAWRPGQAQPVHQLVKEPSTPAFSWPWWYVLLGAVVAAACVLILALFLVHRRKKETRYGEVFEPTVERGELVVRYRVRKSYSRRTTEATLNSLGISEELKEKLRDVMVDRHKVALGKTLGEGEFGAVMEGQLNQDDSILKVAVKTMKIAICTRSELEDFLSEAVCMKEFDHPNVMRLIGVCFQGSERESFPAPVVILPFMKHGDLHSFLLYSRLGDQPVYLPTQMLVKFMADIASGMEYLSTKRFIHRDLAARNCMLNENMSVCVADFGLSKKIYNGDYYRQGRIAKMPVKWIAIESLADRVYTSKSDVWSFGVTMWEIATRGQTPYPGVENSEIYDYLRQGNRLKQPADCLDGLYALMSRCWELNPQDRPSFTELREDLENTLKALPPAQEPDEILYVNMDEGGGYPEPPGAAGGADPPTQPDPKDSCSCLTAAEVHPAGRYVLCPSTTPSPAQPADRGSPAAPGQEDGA
Description: For cell surface binding studies, two fold serial dilutions of a 10 μg/ml (6.66 10^−8 M) primary antibody solution (1613F12, MAB154 or mIgG1 isotype control 9G4 Mab) are prepared and are applied on 2·10^5 cells for 20 min at 4° C. After 3 washes in phosphate-buffered saline (PBS) supplemented with 1% BSA and 0.01% NaN3, cells were incubated with secondary antibody Goat anti-mouse Alexa 488 ( 1/500° dilution) for 20 minutes at 4° C. After 3 additional washes in PBS supplemented with 1% BSA and […], cells were analyzed by FACS (Facscalibur, Becton-Dickinson). At least 5000 cells were assessed to calculate the mean value of fluorescence intensity.
1613F12 dose response curves were prepared. MFIs obtained using the various human tumor cells were then analysed with Prism software.

rhDtk-Fc = biological target: T3, rhDtk-Fc (Homo sapiens, UniProt Q06418); assay: ELISA binding on immobilized rhDtk-Fc protein; settings: starting concentration 5 μg/ml, 1/2 serial dilutions
T3 construct: purchased R and D Systems 859-DK
T3 sequence (Q06418 with tags, fused parts or gaps limits assumed): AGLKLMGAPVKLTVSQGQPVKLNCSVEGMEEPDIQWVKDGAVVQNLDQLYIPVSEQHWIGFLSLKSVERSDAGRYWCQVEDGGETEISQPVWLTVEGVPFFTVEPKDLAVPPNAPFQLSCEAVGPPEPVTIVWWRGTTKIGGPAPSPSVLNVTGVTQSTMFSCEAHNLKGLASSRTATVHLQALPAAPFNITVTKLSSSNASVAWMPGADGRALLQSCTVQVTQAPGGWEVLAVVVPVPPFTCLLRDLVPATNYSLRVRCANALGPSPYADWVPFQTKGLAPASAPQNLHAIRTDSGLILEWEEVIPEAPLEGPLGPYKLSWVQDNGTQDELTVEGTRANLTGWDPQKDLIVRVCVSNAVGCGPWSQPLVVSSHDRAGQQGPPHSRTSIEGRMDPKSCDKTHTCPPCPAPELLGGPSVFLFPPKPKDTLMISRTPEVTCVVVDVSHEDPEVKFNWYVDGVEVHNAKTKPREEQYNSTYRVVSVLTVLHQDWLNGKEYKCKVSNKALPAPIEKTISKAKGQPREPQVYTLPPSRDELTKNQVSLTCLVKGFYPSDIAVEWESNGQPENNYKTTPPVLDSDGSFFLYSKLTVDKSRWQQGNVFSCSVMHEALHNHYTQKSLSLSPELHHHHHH
Description: as §1

[1] = biological target: T4, rhDtk-Fc (R and D Systems, cat N° 859-DK) (human, UniProt Q06418 41-428, limits assumed); assay: ELISA on coated protein
T4 construct: Bought protein; also called Tyro3; not shown: Fc of human IgG
T4 sequence (looked up): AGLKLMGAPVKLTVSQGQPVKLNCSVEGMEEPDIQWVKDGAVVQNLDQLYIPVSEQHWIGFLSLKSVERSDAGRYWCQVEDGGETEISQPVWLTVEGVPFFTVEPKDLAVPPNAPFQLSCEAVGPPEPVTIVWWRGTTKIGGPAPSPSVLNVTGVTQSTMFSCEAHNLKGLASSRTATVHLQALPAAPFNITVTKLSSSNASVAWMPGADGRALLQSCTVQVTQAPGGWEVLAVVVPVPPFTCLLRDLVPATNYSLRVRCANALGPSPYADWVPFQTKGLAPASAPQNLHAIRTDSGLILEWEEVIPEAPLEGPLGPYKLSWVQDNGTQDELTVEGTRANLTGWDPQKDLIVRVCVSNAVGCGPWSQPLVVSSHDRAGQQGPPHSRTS

[2] = biological target: T5, rhMer-Fc (R and D Systems, cat N° 891-MR) (human, UniProt Q12866 26-499, limits assumed); assay: ELISA on coated protein
T5 construct: Bought protein; not shown: Fc of human IgG
T5 sequence (looked up): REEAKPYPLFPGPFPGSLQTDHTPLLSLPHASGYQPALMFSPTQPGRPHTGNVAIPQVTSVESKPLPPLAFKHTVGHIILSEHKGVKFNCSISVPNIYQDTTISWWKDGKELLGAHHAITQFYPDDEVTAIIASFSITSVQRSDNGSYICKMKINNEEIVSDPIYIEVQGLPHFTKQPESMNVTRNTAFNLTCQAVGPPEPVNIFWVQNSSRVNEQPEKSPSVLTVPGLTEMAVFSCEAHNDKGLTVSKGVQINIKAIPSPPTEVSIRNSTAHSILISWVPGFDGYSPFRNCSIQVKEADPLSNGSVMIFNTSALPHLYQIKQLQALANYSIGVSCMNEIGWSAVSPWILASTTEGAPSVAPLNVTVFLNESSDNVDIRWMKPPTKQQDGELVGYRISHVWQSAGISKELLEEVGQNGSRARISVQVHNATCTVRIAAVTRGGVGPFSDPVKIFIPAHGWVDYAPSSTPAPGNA

T1 sequence (Q12866 with tags, fused parts or gaps limits assumed): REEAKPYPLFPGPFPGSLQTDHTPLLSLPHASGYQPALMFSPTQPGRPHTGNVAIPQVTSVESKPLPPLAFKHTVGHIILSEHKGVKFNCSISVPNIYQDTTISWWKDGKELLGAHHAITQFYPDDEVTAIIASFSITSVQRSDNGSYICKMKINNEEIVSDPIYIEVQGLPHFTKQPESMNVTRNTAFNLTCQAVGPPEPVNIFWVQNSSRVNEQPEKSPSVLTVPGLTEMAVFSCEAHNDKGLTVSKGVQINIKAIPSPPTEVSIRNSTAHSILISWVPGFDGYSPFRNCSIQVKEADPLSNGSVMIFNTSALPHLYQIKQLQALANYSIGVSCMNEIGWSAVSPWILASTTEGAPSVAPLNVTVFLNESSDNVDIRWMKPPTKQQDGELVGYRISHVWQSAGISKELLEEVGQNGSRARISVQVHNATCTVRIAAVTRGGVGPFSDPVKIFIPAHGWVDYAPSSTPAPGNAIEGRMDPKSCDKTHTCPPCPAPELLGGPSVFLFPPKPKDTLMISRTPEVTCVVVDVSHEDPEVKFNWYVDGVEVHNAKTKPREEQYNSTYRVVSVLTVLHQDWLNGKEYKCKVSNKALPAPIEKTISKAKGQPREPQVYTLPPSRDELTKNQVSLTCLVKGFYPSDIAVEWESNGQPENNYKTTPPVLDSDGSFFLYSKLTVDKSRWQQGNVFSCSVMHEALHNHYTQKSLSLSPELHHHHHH

B1: m1613F12 (murine 1613F12, hybridoma CNCM I-4505) (antibody, V domains shown)
VH: EVHLQQSGAELVKPGASVKLSCTASGFNIRDTYIHWVKQRPEQGLEWIGRLDPANGHTKYGPNFQGRATMTSDTSSNTAYLQLSSLTSEDTAVYYCARGAYYYGSSGLFYFDYWGQGTTLSVSS
VL: DVQITQSPSYLATSPGETITINCRASKSISKYLAWYQEKPGKTNKLLIYSGSTLQSGVPSRFSGSGSGTDFTLTISSLEPEDFAMYFCQQHHEYPLTFGAGTELELK
notes: Murine monoclonal antibody; also called Axl antibody
rhMer-Fc
  binding on rhMer (ELISA): does not bind
Membrane Axl receptor
  binding to membrane Axl receptor on human tumor cells (FACS, saturation curves): binds specifically to the membrane Axl receptor
rhDtk-Fc
  binding on rhDtk (ELISA): does not bind
[1]
  binding result: no binding
[2]
  binding result: no binding
